Reference: patent publication US12059437B2, “Methods and compositions for hematopoietic stem cell mobilization” (The Regents of the University of California, priority 2019, dated 2024)

Columns and labels:
[1] = tested on: HSCs (cKIT+lineage-SCA1+CD27+FLK2- cells); experiment: HSC mobilization to the blood in mice (perfused blood, flow cytometry); assay type: in vivo, mouse
Method: FIG. 1A: Experimental design for 2-hour HSC mobilization with sildenafil citrate plus AMD3100 (top), or 5-day GCSF treatment (bottom). GCSF was administered to mice once daily for 4 days (250 μg/kg). Sildenafil citrate was administered via oral gavage (OG; 3 mg/kg) once, 1 hr prior to a single subcutaneous (SQ) injection of AMD3100 (2.5 mg/kg). […]
FIG. 2E: Experimental design for HSC mobilization with multiple daily doses of sildenafil citrate. Sildenafil citrate was administered orally (OG) at 10 mg/kg once daily for 3 days. AMD3100 (2.5 mg/kg-5 mg/kg) was injected subcutaneously (SQ) 1 hour after the third sildenafil citrate dose, followed 1 hour later by blood perfusion and analysis.
Mobilization/tissue isolation. Mice were treated with subcutaneous (SQ) injections of rhGCSF (Amgen, Thousand Oaks, CA, 250 μg/kg) or a single dose of AMD3100 (Sigma, 2.5 mg/kg or 5 mg/kg where specified), or by oral gavage (OG) with sildenafil citrate (Viagra®; Sigma; 3, 10 or 30 mg/kg) (Motta et al., 2015) as indicated. Maximum blood was obtained by perfusing the mouse with PBS/20 mM EDTA through the left ventricle, clipping the right atrium and collecting the pooled perfused blood in the chest cavity. The total blood was processed for cell counts and flow cytometry analysis, as described previously (Smith-Berdan et al., 2011, 2015). Briefly, cells were pelleted by centrifugation, washed with 2% donor calf serum in PBS to remove EDTA, then incubated with fluorescently conjugated antibodies for flow cytometry analysis or resuspended in HBSS for transplantation into conditioned recipients.
Flow cytometry. Cell labeling was performed on ice in 1× PBS with 5 mM EDTA and 2% serum. Antibodies used are listed in the supplemental table. Samples were analyzed for donor chimerism (detectable by either GFP or antibodies targeted at the CD45.1/2 locus) on an LSRII or AriaIII (Becton Dickinson, San Jose, CA), as described previously (Beaudin et al., 2016; Boyer et al., 2011, 2019; Leung et al., 2019; Smith-Berdan et al., 2011, 2015; Ugarte et al., 2015).

HSCs = experiment: Transplantation of mobilized blood into irradiated recipients (reconstitution, donor chimerism); assay type: in vivo, mouse; details: compared to sildenafil citrate plus AMD3100; total donor chimerism 20 weeks post-transplantation
From the text: FIG. 1E: Donor chimerism over 5 months in lethally irradiated mice transplanted with blood from mice mobilized with AMD3100 alone or with both sildenafil citrate and AMD3100 as in the schedule shown in FIG. 1A. UBC-GFP mice were used as the mobilized donor mice, enabling identification of donor derived (GFP+) cells versus the unlabeled cells of the wild-type recipients. N=5-7 mice per cohort in 3 independent experiments. Paired t-test; *p<0.05 and **p<0.01.
FIGS. 11 and 1J: Long-term multilineage engraftment upon serial transplantation of bone marrow cells from the primary recipients in FIGS. 1E-1H into secondary, lethally irradiated wt hosts. Total donor chimerism in the peripheral blood over the course of the experiment is shown on the left. Quantification of donor-derived B, T and GM cells, platelets and erythrocytes 20 weeks post-transplantation is shown on the right. Data represent three independent experiments, N=9-12 mice per cohort. Unpaired t-test; *p<0.05, **p<0.01, ***p<0.001.
Transplantation of mobilized HSPCs. […]
Flow cytometry. […] Samples were analyzed for donor chimerism (detectable by either GFP or antibodies targeted at the CD45.1/2 locus) on an LSRII or AriaIII (Becton Dickinson, San Jose, CA), as described previously (Beaudin et al., 2016; Boyer et al., 2011, 2019; Leung et al., 2019; Smith-Berdan et al., 2011, 2015; Ugarte et al., 2015).

Row | Molecule | increase of numbers of phenotypic HSCs compared to control mice ([1]; AMD3100 single SQ injection alone or plus a single oral sildenafil citrate dose (2-hour protocol), total perfused blood) | numbers of HSCs in the blood 4 hrs post-treatment ([1]; perfusion and blood analysis 4 hours post AMD3100) | HSC mobilization ([1]; single subcutaneous dose) | reconstitution of recipients by blood from mobilized donors (HSCs) | numbers of phenotypic HSCs in the blood compared to sildenafil citrate plus AMD3100 ([1]; 5-day GCSF protocol) | numbers of HSCs in the bloodstream ([1]; 1 day after four consecutive days of G-CSF injections) | mobilization of HSCs and/or HPCs ([1]; FIGS. 2P and 2Q, GCSF 250 μg/kg for 4 days, AMD3100 5 mg/kg for 1 hour)
1 | c1cc(CN2CCCNCCNCCCNCC2)ccc1CN1CCCNCCNCCCNCC1 [AMD3100, reference compound] | 2.9 fold | return to steady-state levels | modest, but reproducible, HSC mobilization |  |  |  | 
2 | G-CSF: granulocyte-colony stimulating factor, rhGCSF (Amgen), standard mobilizing agent (protein, UniProt P09919 31-207, looked up) Granulocyte …: TPLGPASSLPQSFLLKCLEQVRKIQGDGAALQEKLVSECATYKLCHPEELVLLGHSLGIPWAPLSSCPSQALQLAGCLSQLHSGLFLYQGLLQALEGISPELGPTLDTLQLDVADFATTIWQQMEELGMAPALQPTQGAMPAFASAFQRRAGGVLVASHLQSFLEVSYRVLRHLAQP |  |  |  | reconstituted recipients more robustly | did not lead to significantly higher numbers of phenotypic HSCs | ~3,400 HSCs/mouse | effectively mobilizes HSCs and/or HPCs
